Measured values as given in US20260098080A1, “A MODIFIED PROTEIN SCAFFOLD AND USE THEREOF” (EVOLVERITAS BIOTECHNOLÓGIAI KORLÁTOLT FELELOSSÉGU TÁRSASÁG, priority 2022, published 2026).
Read-outs that look alike come from different tables or passages of the source. Bridges are numbered along the chain shown (N, C = ends). Where no end group is shown, it is not given here.

Experiments:
[1] = molecular target: human MASP-2 (Homo sapiens, UniProt O00187); conditions: as disclosed in WO2018127719, read-out: inhibitory binding constant (KI) on human MASP-2, cited from earlier work
Chain of human MASP-2 (O00187 16-686): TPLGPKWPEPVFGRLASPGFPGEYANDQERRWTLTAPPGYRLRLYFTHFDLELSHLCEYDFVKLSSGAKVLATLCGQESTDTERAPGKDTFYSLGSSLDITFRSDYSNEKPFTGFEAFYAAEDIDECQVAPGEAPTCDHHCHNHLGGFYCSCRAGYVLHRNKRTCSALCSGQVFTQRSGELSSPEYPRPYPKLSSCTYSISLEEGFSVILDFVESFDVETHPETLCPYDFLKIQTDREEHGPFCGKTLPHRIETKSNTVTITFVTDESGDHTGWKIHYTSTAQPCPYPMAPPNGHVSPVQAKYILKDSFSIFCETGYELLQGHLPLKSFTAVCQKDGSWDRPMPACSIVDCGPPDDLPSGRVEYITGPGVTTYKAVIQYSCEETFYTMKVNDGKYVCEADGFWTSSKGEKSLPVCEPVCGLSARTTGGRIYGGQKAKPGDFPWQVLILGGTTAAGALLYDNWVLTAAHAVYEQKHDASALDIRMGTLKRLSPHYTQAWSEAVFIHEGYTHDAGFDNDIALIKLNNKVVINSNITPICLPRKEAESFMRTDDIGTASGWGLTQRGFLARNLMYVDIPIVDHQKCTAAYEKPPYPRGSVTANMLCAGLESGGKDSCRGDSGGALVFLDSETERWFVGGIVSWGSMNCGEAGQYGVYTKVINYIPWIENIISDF

[2] = molecular target: rat MASP-2 (Rattus norvegicus, UniProt Q9JJS8); conditions: as disclosed in WO2018127719; cited from earlier work
Chain of rat MASP-2 (Q9JJS8 20-685): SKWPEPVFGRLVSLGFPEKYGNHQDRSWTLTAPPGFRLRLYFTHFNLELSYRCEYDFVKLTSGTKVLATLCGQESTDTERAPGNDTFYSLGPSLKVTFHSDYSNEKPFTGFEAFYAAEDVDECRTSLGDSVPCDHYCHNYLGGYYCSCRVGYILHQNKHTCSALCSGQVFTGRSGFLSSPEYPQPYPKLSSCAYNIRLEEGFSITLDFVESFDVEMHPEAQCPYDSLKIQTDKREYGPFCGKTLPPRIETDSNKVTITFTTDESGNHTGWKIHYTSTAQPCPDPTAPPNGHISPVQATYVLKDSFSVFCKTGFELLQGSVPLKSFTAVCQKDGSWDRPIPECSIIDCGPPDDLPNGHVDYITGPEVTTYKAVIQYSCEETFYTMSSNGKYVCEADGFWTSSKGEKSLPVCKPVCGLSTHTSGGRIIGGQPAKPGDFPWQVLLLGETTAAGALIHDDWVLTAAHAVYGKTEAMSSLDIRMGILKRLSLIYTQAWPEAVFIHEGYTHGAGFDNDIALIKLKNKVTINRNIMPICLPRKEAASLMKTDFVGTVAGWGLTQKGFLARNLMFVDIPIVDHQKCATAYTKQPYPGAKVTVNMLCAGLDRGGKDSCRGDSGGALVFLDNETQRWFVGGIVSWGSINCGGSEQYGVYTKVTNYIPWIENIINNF

[3] = molecular target: T1, human MASP-2 catalytic fragment (Homo sapiens, UniProt O00187); assay: Surface plasmon resonance kinetics and affinity on immobilized human MASP-2 catalytic fragment; assay type: binding
T1 construct: catalytic enzyme fragments containing the three C-terminal domains: CCP1-CCP2-SP; made in house

[4] = molecular target: T2, human MASP-2cf (Homo sapiens, UniProt O00187); assay: Equilibrium inhibition constant (KI) on human MASP-2 catalytic fragment, Z-L-Lys-SBzl substrate; assay type: biochemical
T2 construct: catalytic enzyme fragments containing the three C-terminal domains: CCP1-CCP2-SP; made in house

[5] = molecular target: fXIa (Homo sapiens, UniProt P03951); assay: IC50 on human blood coagulation factor fXIa; assay type: biochemical; conditions: 3.3 nM enzyme
Chain of fXIa (Homo sapiens, UniProt P03951) (P03951 388-625 limits assumed): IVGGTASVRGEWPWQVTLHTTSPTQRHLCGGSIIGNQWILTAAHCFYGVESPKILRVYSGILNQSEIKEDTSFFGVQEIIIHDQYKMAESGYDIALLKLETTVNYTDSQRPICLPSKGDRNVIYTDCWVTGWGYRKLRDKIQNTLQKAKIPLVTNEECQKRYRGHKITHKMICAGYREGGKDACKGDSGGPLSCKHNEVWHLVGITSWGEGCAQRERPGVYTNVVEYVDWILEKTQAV
Chain of fXIa (Homo sapiens, UniProt P03951) (P03951 19-387 partner limits assumed): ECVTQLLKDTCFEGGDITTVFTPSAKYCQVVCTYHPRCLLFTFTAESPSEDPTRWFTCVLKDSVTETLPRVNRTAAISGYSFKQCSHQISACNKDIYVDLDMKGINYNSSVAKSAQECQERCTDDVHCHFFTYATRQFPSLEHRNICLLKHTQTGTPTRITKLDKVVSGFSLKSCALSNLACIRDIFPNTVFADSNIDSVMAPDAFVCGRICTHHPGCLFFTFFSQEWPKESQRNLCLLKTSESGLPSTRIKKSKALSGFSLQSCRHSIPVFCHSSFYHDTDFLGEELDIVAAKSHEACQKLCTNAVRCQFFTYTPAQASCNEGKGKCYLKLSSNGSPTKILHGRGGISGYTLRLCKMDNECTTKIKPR
Method: The measurements were done using non-binding microtiter plates (Greiner; #655901) in 100 μL final volume. After some pilot experiments to find the proper inhibitor concentration range, the maximal inhibitor concentration was set to 20 μM for MASP-1, 10 μM for fXIa and 40 μM for fIXa and fXIIa inhibition, and twofold serial dilutions were prepared from the proteins of the present invention. To these solutions, […] to reach a previously optimized final concentration, 10 nM for MASP-1, 50 nM for fIXa, 3.3 nM for fXIa and 27.5 nM for fXIIa.
The samples were incubated for 10 minutes at room temperature. After adding the substrate (150 μM Z-Lys-S-Benzyl and 300 μM 4,4′-dithiodipyridine (DTDP) co-substrate for MASP-1; 150 μM Z-Gly-Arg-S-Benzyl and 300 μM DTDP co-substrate for fIXa; 300 μM Cbz-GPR-pNA for fXIa and 100 μM H-D-PFR-pNA for fXIIa). The reaction buffer was 50 mM Tris-HCl, 150 mM NaCl, 5 mM CaCl2), 0.1% PEG-8000 pH 7.4 for MASP-1; 20 mM HEPES, 145 mM NaCl, 0.05% Triton-X100 pH 7.4 for fIXa and fXIa; which was complemented with 5 mM CaCl2) for fXIIa.
The efficacies of the proteins of the present invention were determined in the form of (IC50) values corresponding to inhibitor concentrations that provide 50% inhibition.

[6] = molecular target: fIXa (human, UniProt P00740 47-461); assay: cell-based or functional assay
Chain of fIXa (P00740 47-461 limits assumed): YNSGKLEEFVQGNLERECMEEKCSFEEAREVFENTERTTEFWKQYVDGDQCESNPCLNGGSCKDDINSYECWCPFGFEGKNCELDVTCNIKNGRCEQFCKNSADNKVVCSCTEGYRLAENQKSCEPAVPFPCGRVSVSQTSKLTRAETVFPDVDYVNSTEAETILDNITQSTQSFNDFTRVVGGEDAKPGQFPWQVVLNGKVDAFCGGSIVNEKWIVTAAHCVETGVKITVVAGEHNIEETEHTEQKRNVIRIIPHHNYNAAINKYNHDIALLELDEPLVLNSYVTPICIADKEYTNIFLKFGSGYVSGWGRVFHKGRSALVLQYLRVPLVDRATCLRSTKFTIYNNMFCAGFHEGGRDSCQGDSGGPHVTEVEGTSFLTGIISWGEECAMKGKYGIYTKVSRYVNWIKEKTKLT

[7] = molecular target: T3, MASP-1 (UniProt P48740 298-699, limits assumed); assay: cell-based or functional assay
T3 sequence (looked up): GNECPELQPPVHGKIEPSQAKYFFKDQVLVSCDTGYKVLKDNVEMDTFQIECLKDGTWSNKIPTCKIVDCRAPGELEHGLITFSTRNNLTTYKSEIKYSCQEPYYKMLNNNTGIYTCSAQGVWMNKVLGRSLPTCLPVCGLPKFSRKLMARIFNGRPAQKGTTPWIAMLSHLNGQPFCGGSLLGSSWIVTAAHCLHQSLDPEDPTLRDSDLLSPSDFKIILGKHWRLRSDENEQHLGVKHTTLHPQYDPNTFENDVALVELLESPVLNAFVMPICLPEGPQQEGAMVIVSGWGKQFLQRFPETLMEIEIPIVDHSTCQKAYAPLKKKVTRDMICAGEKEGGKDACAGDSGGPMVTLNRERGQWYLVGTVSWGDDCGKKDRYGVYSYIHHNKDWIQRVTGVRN

[8] = molecular target: fXIa (human, UniProt P03951 19-625); assay: cell-based or functional assay
Chain of fXIa (human, UniProt P03951 19-625) (P03951 19-625 limits assumed): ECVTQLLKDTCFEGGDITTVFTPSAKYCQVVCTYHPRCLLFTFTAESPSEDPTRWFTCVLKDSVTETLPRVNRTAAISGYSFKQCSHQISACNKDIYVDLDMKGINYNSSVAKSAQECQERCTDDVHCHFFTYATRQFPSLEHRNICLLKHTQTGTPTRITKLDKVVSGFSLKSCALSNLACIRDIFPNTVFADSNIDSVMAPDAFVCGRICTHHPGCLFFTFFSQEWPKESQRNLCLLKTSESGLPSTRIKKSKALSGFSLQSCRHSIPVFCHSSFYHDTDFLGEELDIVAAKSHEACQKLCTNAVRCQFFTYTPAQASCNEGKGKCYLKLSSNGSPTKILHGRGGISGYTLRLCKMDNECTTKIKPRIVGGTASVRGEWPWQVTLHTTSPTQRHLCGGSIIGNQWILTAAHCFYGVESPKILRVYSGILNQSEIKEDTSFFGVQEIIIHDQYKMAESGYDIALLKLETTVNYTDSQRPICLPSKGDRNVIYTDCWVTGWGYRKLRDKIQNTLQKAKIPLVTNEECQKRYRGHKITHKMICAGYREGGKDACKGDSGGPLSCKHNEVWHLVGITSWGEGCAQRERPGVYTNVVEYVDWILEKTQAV

[9] = molecular target: T4, fXIIa (human, UniProt P00748 20-615, limits assumed); assay: cell-based or functional assay
T4 sequence (looked up): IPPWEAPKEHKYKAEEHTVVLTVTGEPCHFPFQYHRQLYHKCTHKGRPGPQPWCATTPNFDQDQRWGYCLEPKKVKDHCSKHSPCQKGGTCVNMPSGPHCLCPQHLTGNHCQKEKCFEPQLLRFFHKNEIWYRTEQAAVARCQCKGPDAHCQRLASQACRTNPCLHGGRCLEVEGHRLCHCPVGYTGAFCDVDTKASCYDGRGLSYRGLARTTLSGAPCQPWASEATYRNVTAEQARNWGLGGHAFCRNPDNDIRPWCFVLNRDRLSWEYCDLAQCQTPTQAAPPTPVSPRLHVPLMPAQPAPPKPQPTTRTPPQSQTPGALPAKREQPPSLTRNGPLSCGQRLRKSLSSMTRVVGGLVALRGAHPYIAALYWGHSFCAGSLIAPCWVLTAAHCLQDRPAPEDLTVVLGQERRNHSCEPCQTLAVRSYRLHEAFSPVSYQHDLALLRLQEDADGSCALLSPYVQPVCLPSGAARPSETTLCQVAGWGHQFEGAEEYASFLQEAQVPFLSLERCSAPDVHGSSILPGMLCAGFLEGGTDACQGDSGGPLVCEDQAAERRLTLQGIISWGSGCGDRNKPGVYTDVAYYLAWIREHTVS

[10] = molecular target: T5, human MASP-2 (in normal human serum) (human, UniProt O00187 16-686); assay: cell-based or functional assay
T5 sequence (O00187 16-686 limits assumed): as the sequence (O00187 16-686) above

[11] = molecular target: rat MASP-2 (in rat serum) (rat, UniProt Q9JJS8 20-685); assay: cell-based or functional assay
Chain of rat MASP-2 (in rat serum) (Q9JJS8 20-685 limits assumed): as the sequence (Q9JJS8 20-685) above

[12] = molecular target: T5, human MASP-2 (in normal human serum); assay: cell-based or functional assay; remark: listed apart in the source
[13] = molecular target: T6, human MASP-2cf CCP1-CCP2-SP (human, UniProt O00187 298-686, limits assumed); assay: SPR, target immobilised
T6 construct: domain: CCP1-CCP2-SP; also called human MASP-2 catalytic fragment
T6 sequence (O00187 298-686 limits assumed): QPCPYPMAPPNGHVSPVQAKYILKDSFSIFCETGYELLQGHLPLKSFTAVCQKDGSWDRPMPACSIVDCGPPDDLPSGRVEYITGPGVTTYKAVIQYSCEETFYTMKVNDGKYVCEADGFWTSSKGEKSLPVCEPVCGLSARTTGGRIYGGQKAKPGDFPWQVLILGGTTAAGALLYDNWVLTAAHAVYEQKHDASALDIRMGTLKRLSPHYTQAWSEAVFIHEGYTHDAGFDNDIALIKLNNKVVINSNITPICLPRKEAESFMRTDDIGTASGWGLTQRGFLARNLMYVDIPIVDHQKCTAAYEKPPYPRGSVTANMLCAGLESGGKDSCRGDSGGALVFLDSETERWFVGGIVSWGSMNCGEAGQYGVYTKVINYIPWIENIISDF

[14] = molecular target: T7, rat MASP-2cf CCP1-CCP2-SP (rat, UniProt Q9JJS8 298-685); assay: SPR, target immobilised
T7 construct: range 298-685; Mw 42309 Da; also called rat MASP-2 catalytic fragment
T7 sequence (Q9JJS8 other isoform, or with tags, fused parts or gaps limits assumed, form in doubt): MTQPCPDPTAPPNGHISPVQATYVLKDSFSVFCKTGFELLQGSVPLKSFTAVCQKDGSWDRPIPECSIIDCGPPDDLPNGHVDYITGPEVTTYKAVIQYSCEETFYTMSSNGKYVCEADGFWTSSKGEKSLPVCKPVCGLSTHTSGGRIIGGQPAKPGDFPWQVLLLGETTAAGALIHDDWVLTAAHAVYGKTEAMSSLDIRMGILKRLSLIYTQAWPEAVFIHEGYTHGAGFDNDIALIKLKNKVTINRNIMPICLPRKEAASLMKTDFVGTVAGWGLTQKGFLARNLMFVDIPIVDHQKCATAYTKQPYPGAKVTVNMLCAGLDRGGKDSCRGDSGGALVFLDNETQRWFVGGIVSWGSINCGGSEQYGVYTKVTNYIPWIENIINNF

[15] = molecular target: T6, human MASP-2cf CCP1-CCP2-SP; assay: enzyme inhibition, tight-binding fit
[16] = molecular target: T7, rat MASP-2cf CCP1-CCP2-SP; assay: enzyme inhibition, tight-binding fit

## KPDFCFLEEDPGPCRAVKRRYFYNNQTKQCERFKYGGCLGNMNNFETLEECKNICEDG (disulfide 5-55, 14-38, 30-51) [EVO2]
[1]; listed as WO2018127719 with SEQ ID NO: 14
  Ki: 7.9 nM
[1]
  Ki: ~7 nM
[2]
  Ki: ~7 nM

## KPDFCFLENDPGLCRAAAVRYFYNNQTKQCERFYYGGCLGNMNNFVTLEECKNICEDG (disulfide 5-55, 14-38, 30-51) [EVO222]
[3]
  Kd: 0.045 nM

## KPDFCFLENDPGPCRAAAVRYFYNNQTKQCERFYYGGCLGNMNNFVTLEECKNICEDG (disulfide 5-55, 14-38, 30-51) [EVO223]
[4]; 5 nM enzyme, read-out: KI values human MASP-2cf
  Ki: 0.17 ± 0.07 nM

## KPDFCFLENDPGPCRAAKRRYFYNNQTKQCERFYYGGCLGNMNNFVTLEECKNICEDG (disulfide 5-55, 14-38, 30-51) [EVO22a]
[3]; Human MASP-2 catalytic fragment, SPR, read-out: KD
  Kd: 0.045 nM

## KPDFCFLENDPGPCRALKRRYFYNNQTKQCERFYYGGCFGNMNNFETLEECKNICEDG (disulfide 5-55, 14-38, 30-51) [EVO25]
[4]
  Ki: 0.17 ± 0.04 nM

## KPDFCFLENDPGPCRALKRRYFYNNQTKQCERFYYGGCFGNMNNFVTLEECKNICEDG (disulfide 5-55, 14-38, 30-51) [EVO23]
[5]
  IC50: 500 nM

## KPDFCFLENDPGPCRALKRRYFYNNQTKQCERFYYGGCLGNMNNFETLEECKNICEDG (disulfide 5-55, 14-38, 30-51) [EVO24]
[5]
  IC50: 500 nM

## SEQ ID NO: 11 in WO2018127719: highest efficiency human MASP-2 inhibiting Kunitz domain compound of WO2018127719, canonical inhibitory loop sequence GFCRAVKR (KPDFCFLENDPGPCRALKRRYFYNNQTKQCERFYYGGCFGNMNNFETLEECKNICEDG)
[1]
  Ki: 2 nM
[2]
  Ki: 640 nM

B1: EVO21 (designed binder)
chain: KPDFCFLENDPGPCRALKRRYFYNNQTKQCERFGYGGCLGNMNNFVTLEECKNICEDG
modifications: not fully specified; ends and bridges not checked
notes: Modified TFPI-D2 Kunitz domain; made as m1
[6]
  IC50, enzyme activity on synthetic substrate: 28000 nM
[7]
  IC50, enzyme activity on synthetic substrate: 13000 nM
[8]
  IC50, enzyme activity on synthetic substrate: 800 nM
[9]
  IC50, enzyme activity on synthetic substrate: 10500 nM
[10]
  Relative potency (relative human lectin pathway inhibitory efficiency compared to EVO2): 24 fold relative to EVO2
[11]
  IC50, lectin pathway C4 deposition, rat serum: 10.9 nM
  Relative potency, lectin pathway, rat serum: 9.8 fold vs EVO2
[12]
  IC50, lectin pathway C4 deposition, human serum: 5.7 nM
  Relative potency, lectin pathway, human serum: 24.1 fold vs EVO2
[13]
  Kd: 0.037 nM
  Relative affinity: 48 fold vs EVO2
  koff: 4.92e-05 s⁻¹
  kon: 1.32e+06 M⁻¹ s⁻¹
[14]
  Kd: 0.082 nM
  Relative affinity: 44.1 fold vs EVO2
  koff: 4.49e-05 s⁻¹
  kon: 545000 M⁻¹ s⁻¹

B2: EVO214 (designed binder)
chain: KPDFCFLENDPGPCRALKLRYFYNNQTKQCERFGYGGCLGNMNNFVTLEECKNICEDG
modifications: not fully specified; ends and bridges not checked
notes: as for B1
[6]
  IC50, enzyme activity on synthetic substrate: 24000 nM
[7]
  IC50, enzyme activity on synthetic substrate: 9600 nM
[8]
  IC50, enzyme activity on synthetic substrate: 200 nM
[9]
  IC50, enzyme activity on synthetic substrate: 3700 nM
[11]
  IC50, lectin pathway C4 deposition, rat serum: 11.2 nM
  Relative potency, lectin pathway, rat serum: 9.5 fold vs EVO2
[12]
  IC50, lectin pathway C4 deposition, human serum: 4.3 nM
  Relative potency, lectin pathway, human serum: 32.4 fold vs EVO2
[13]
  Kd: 0.038 nM
  Relative affinity: 47.6 fold vs EVO2
  koff: 4.78e-05 s⁻¹
  kon: 1.27e+06 M⁻¹ s⁻¹
[14]
  Kd: 0.117 nM
  Relative affinity: 31 fold vs EVO2
  koff: 7.19e-05 s⁻¹
  kon: 614000 M⁻¹ s⁻¹

B3: EVO24 (designed binder)
chain: KPDFCFLENDPGPCRALKRRYFYNNQTKQCERFYYGGCLGNMNNFETLEECKNICEDG
modifications: not fully specified; cysteine pairing not given here
notes: as for B1
[6]
  IC50, enzyme activity on synthetic substrate: 123000 nM
[7]
  IC50, enzyme activity on synthetic substrate: 9500 nM
[8]
  IC50, enzyme activity on synthetic substrate: 500 nM
[9]
  IC50, enzyme activity on synthetic substrate: 16100 nM
[11]
  IC50, lectin pathway C4 deposition, rat serum: 6.6 nM
  Relative potency, lectin pathway, rat serum: 16.2 fold vs EVO2
[12]
  IC50, lectin pathway C4 deposition, human serum: 7.6 nM
  Relative potency, lectin pathway, human serum: 18.1 fold vs EVO2
[13]
  Kd: 0.276 nM
  Relative affinity: 6.5 fold vs EVO2
  koff: 0.000622 s⁻¹
  kon: 2.25e+06 M⁻¹ s⁻¹
[14]
  Kd: 0.289 nM
  Relative affinity: 12.6 fold vs EVO2
  koff: 0.000327 s⁻¹
  kon: 1.13e+06 M⁻¹ s⁻¹
[15]
  Ki: 0.34 nM
[16]
  Ki: 0.36 nM
